Laboratory results taken from the DeepSol protein solubility set.

Assay: soluble on expression in E. coli; label from the status in PepcDB or PDB records

Sequence	soluble on expression in E. coli
MSLRPDMSRLTMIRFLTEIDYPPFNFTGADGNPAGFNVDLARALCDEIKITCTVQMRKFETLLDALASNRGDAIIASLAVTPQTRTKLDFTDPYYRTPARFVARKDAVMPEMRPEFLEGRKVGAVAGSAHEAYLKAMFTDAELHSYPNAEALRAALKRGEVDFIFGDAISLAFWINGTDSENCCAFSGAPFLESRYFGEGVGIAVRKGNDTLRQALNWALFRVWEKGQYTDLWLRYFSVSEGHHHHHH	soluble
MIFAAIADIHGNCAALEAVLEDIAKLGIKDIVNLGDCFSGPLEAGFTGDVLVGNWIPSIRGNHDRELIERAPENMGSWEKPAHAQLTAAHLDWLHTLPFSMVFRDVAYCCHGSPLGDLDYWLETLSPEGVLKLRPLAEIEERAEGITQPLMLCGHTHIPRAVQLSDGRLIVNPGSVGCPGWKDDTPFDHHVEAGHALATYAVLEETGRGWQVYFRNIRYDNLAMSEMARVNGIPYLADALTNGWLKR	not soluble
MIEVKPINAEDTYELRHRILRPNQPIEACMFESDLLRGAFHLGGYYGGKLISIASFHQAEHSELQGQKQYQLRGMATLEGYREQKAGSSLIKHAEEILRKRGADLLWCNARTSASGYYKKLGFSEQGEVFDTPPVGPHILMYKRIT	soluble
MNVDLHCHSTASDGALSPTALVARAHEYGVRVLSLTDHDTLEGLEEARTAAHSLGMQLVNGVELSCTWGGATIHVLGYGFDTQAPALTEAIARLHEGRWLRAEEISRKLAIKGMPGALEGARAIQQALGDSGNAPARPHFADFMVRAGFVKDRAEAFRKWLGAGKLGDVKQHWPTLEDTVATLRASGAWVSLAHPSHYDFTRSKRRKLVGDFVQAGGHAIEVVNGMQPADQVGTLAILAREFGLLVSAGSDFHGPGNWGEIGTYRPVPEDLPPLWCRFKHEQPTAAV	not soluble
MTHSLVCPETVSRVSSVLNRNTRQFGKKHLFDQDEETCWNSDQGPSQWVTLEFPQLIRVSQLQIQFQGGFSSRRGCLEGSQGTQALHKIVDFYPEDNNSLQTFPIPAAEVDRLKVTFEDATDFFGRVVIYHLRVLGEKV	soluble
MSDGHHNGHEHVPSRQRRRFPGISSRAYEHPADRSALVALRKLSGFDTVFKALSGLLPERSLRLLFLSDSVRVSDRQFAHLNVMLRDACYILDLEKVPPMYVNQDPVPNAMCIGLDEPIIVVTTGLVELLDEEEMRAVVGHEVGHALSGHAVYRTILLFLTSLAVRVAWIPLGNVAIMAIVTALREWFRKSELSADRAGLLVGQDLQASMRGLMKIAGGNHLHEMNVDAFLEQAEEYEAGGDLRDSVLKILNVLPRSHPFTTVRAAELKKWAASRDYQRIMDGHYPRRDEDRNTSVRDSFRESASHYATHVRSSKDPLMKLVNDIAGGAGDLGDRMRRGFGGFTGSQPRPPEDDGGPAQGPGGSGRPDGPDRPEGPEGSGGSEEPGGDGPESPRDGSPRDGALEHHHHHH	not soluble
MGSDKIHHHHHHMDLPDSASRVFCGRILSMVNTDDVNAIILAQKNMLDRFEKTNEMLLNFNNLSSARLQQMSERFLHHTRTLVEMKRDLDSIFRRIRTLKGKLARQHPEAFSHIPEASFLEEEDEDPIPPSTTTTIATSEQSTGSCDTSPDTVSPSLSPGFEDLSHVQAGSPAINGRSQTDDEEMTGE	not soluble
MSIRAEEISALIKQQIENYQSEIEVSDVGTVIQVGDGIARAHGLDNVMAGELVEFSNGVMGLAQNLEENNVGIIILGPYTEIREGDEVRRTGRIMQVPVGKELIGRVVNPLGQPVDGLGPINTTNTRPIESPAPGVMDRKSVHEPLQTGIKAIDALVPIGRGQRELIIGDRQTGKTAVALDTIINQKDEDMICIYVAIGQKESTVRNVVETLRKHGALEYTIVVTASASQPAPLLYLAPYAGVTMGEEFMYNGKHVLVVYDDLSKQAAAYRELSLLLRRPPGREAYPGDVFYLHSRLLERAAKLSDAKGGGSLTALPFIETQAGDVSAYIPTNVISITDGQIFLQSDLFFSGVRPAIDAGTSVSRVGGSAQIKAMSKVSGTLRLDLASYRELEAFAQFGSDLDKATQAKLNRGARTVEVLKQGLHKPLRVEKQVIILYALTRGFLDDIPVVDITRFEEEFHAWLDSNATDLLEEIRTTKKLADDDKFAAAINGFKKVFVASE	not soluble
MGSDKIHHHHHHMATLSKKIDFAIIMSVKNANPNGDPLNGNRPRTDYEGLGEITDVCLKRKIRDRLVEQYVSLKNEEEKKGQAIFVQSDDRKIDGETSLRNRAESEKNGLGKKAFGANAKKDETAKSACEKWFDVRAFGQVFAFGKGNDADGVSIPVRGPVTIQSAFSRDLVSISSTQITKSVSGEGDGKKRSSDTMGMKHRVDRGIYVTYGTMNPQLAERTGFSDKDAAVIKAILPKIFENDASSARPEGSMEVVKVLWWQHNSKSGDYSSAKVHRSLKVNPDGSYIIEPLNGLVPEEIAGF	not soluble
